From PMC2857972 (The Biochemical journal, 2008)

Target: the molecule itself
Test: crystal structure

B1: Bacillus megaterium SirC (precorrin-2 dehydrogenase), His6-tagged (enzyme)
chain: MYTVMLDLKGRSVLVVGGGTIATRRIKGFLQEGAAITVVAPTVSAEINEWEAKGQLRVKRKKVGEEDLLNVFFIVVATNDQAVNKFVKQHIKNDQLVNMASSFSDGNIQIPAQFSRGRLSLAISTDGASPLLTKRIKEDLSSNYDESYTQYTQFLYECRVLIHRLNVSKSRKHELLTEIIDDQYRLSLVKQREFLQQIEKYK
- stoichiometry N: 2
